# In article PMC5707476, “Enzyme repurposing of a hydrolase as an emergent peroxidase upon metal binding” (Chemical Science, 2015):
# Substrate: COc1cc(-c2ccc(N)c(OC)c2)ccc1N
# Assay: purified protein
# Assay type: biochemical, Mycolicibacterium smegmatis
# Settings: 6.6 mM t-BuOOH, 4.5 μM Cu(II)
# [1] = 6-PGLac (parent), 1.25 μM protein, MES pH 6.5, 150 mM NaCl, 25 °C, free copper background subtracted
# [2] = D131N (reversion of parent N131D = natural sequence), 1.25 μM protein, MES pH 6.5, 150 mM NaCl, 25 °C, free copper background subtracted
# [3] = Y69L on the N131D parent, MES pH 6.5, 25 °C
# [4] = Y69W on the N131D parent, MES pH 6.5, 25 °C
# [5] = Y69F on the N131D parent, MES pH 6.5, 25 °C
# [6] = H95A on the N131D parent, MES pH 6.5, 25 °C
# [7] = H9A on the N131D parent, MES pH 6.5, 25 °C
protein,measurement,setting,value
"6-phosphogluconolactonase (6-PGLac; Cu·6-PGLac) (Mycolicibacterium smegmatis MC2 155; N131D) (protein, Strep-tag II, expressed in E. coli, purified, loaded with Cu(II)) MSDTVIERHADTAALVAAAGDRLVDAISSAIGERGQATIVLTGGGTGIGLLKRVRERSGEIDWSKVHIYWGDERFVPQDDDERNDKQAREALLDHIGIPPVNVHAMAASDGEFGDDLEAAAAGYAQLLSADFDSSVPGFDVHLLGMGGEGHVNSLFPDTDAVRETERLVVGVSDSPKPPPRRITLTLPAVQNSREVWLVVSGEAKADAVAAAVGGADPVDIPAAGAVGRERTVWLVDEAAAAKL",Km,[1],11 ± 3 µM
same,kcat,[1],78 ± 4 × 10^-3 s^-1
same,kcat/Km,[1],6900 ± 2000 M⁻¹ s⁻¹
same,Km,[2],21 ± 6 µM
same,kcat,[2],150 ± 10 × 10^-3 s^-1
same,kcat/Km,[2],7200 ± 2000 M⁻¹ s⁻¹
"6-phosphogluconolactonase (6-PGLac; Cu·6-PGLac) (Mycolicibacterium smegmatis MC2 155; N131D/Y69L) (protein, Strep-tag II, expressed in E. coli, purified, loaded with Cu(II)) MSDTVIERHADTAALVAAAGDRLVDAISSAIGERGQATIVLTGGGTGIGLLKRVRERSGEIDWSKVHILWGDERFVPQDDDERNDKQAREALLDHIGIPPVNVHAMAASDGEFGDDLEAAAAGYAQLLSADFDSSVPGFDVHLLGMGGEGHVNSLFPDTDAVRETERLVVGVSDSPKPPPRRITLTLPAVQNSREVWLVVSGEAKADAVAAAVGGADPVDIPAAGAVGRERTVWLVDEAAAAKL",Km,[3],82 ± 10 µM
same,kcat,[3],490 ± 30 × 10^-3 s^-1
same,kcat/Km,[3],5900 ± 900 M⁻¹ s⁻¹
"6-phosphogluconolactonase (6-PGLac; Cu·6-PGLac) (Mycolicibacterium smegmatis MC2 155; N131D/Y69W) (protein, Strep-tag II, expressed in E. coli, purified, loaded with Cu(II)) MSDTVIERHADTAALVAAAGDRLVDAISSAIGERGQATIVLTGGGTGIGLLKRVRERSGEIDWSKVHIWWGDERFVPQDDDERNDKQAREALLDHIGIPPVNVHAMAASDGEFGDDLEAAAAGYAQLLSADFDSSVPGFDVHLLGMGGEGHVNSLFPDTDAVRETERLVVGVSDSPKPPPRRITLTLPAVQNSREVWLVVSGEAKADAVAAAVGGADPVDIPAAGAVGRERTVWLVDEAAAAKL",Km,[4],4.8 ± 2 µM
same,kcat,[4],33 ± 2 × 10^-3 s^-1
same,kcat/Km,[4],6900 ± 3000 M⁻¹ s⁻¹
"6-phosphogluconolactonase (6-PGLac; Cu·6-PGLac) (Mycolicibacterium smegmatis MC2 155; N131D/Y69F) (protein, Strep-tag II, expressed in E. coli, purified, loaded with Cu(II)) MSDTVIERHADTAALVAAAGDRLVDAISSAIGERGQATIVLTGGGTGIGLLKRVRERSGEIDWSKVHIFWGDERFVPQDDDERNDKQAREALLDHIGIPPVNVHAMAASDGEFGDDLEAAAAGYAQLLSADFDSSVPGFDVHLLGMGGEGHVNSLFPDTDAVRETERLVVGVSDSPKPPPRRITLTLPAVQNSREVWLVVSGEAKADAVAAAVGGADPVDIPAAGAVGRERTVWLVDEAAAAKL",Km,[5],36 ± 8 µM
same,kcat,[5],100 ± 7 × 10^-3 s^-1
same,kcat/Km,[5],2900 ± 700 M⁻¹ s⁻¹
"6-phosphogluconolactonase (6-PGLac; Cu·6-PGLac) (Mycolicibacterium smegmatis MC2 155; H95A/N131D) (protein, Strep-tag II, expressed in E. coli, purified, loaded with Cu(II)) MSDTVIERHADTAALVAAAGDRLVDAISSAIGERGQATIVLTGGGTGIGLLKRVRERSGEIDWSKVHIYWGDERFVPQDDDERNDKQAREALLDAIGIPPVNVHAMAASDGEFGDDLEAAAAGYAQLLSADFDSSVPGFDVHLLGMGGEGHVNSLFPDTDAVRETERLVVGVSDSPKPPPRRITLTLPAVQNSREVWLVVSGEAKADAVAAAVGGADPVDIPAAGAVGRERTVWLVDEAAAAKL",Km,[6],17 ± 5 µM
same,kcat,[6],80 ± 6 × 10^-3 s^-1
same,kcat/Km,[6],4600 ± 2000 M⁻¹ s⁻¹
"6-phosphogluconolactonase (6-PGLac; Cu·6-PGLac) (Mycolicibacterium smegmatis MC2 155; H9A/N131D) (protein, Strep-tag II, expressed in E. coli, purified, loaded with Cu(II)) MSDTVIERAADTAALVAAAGDRLVDAISSAIGERGQATIVLTGGGTGIGLLKRVRERSGEIDWSKVHIYWGDERFVPQDDDERNDKQAREALLDHIGIPPVNVHAMAASDGEFGDDLEAAAAGYAQLLSADFDSSVPGFDVHLLGMGGEGHVNSLFPDTDAVRETERLVVGVSDSPKPPPRRITLTLPAVQNSREVWLVVSGEAKADAVAAAVGGADPVDIPAAGAVGRERTVWLVDEAAAAKL",Km,[7],12 ± 5 µM
same,kcat,[7],80 ± 6 × 10^-3 s^-1
same,kcat/Km,[7],6500 ± 3000 M⁻¹ s⁻¹
